In EP1780277A1:

Biological target: intact IFNAR1 from human cells (human) (UniProt P17181)
Assay: cell-based or functional assay

UniProt P17181, sequence (P17181 28-557): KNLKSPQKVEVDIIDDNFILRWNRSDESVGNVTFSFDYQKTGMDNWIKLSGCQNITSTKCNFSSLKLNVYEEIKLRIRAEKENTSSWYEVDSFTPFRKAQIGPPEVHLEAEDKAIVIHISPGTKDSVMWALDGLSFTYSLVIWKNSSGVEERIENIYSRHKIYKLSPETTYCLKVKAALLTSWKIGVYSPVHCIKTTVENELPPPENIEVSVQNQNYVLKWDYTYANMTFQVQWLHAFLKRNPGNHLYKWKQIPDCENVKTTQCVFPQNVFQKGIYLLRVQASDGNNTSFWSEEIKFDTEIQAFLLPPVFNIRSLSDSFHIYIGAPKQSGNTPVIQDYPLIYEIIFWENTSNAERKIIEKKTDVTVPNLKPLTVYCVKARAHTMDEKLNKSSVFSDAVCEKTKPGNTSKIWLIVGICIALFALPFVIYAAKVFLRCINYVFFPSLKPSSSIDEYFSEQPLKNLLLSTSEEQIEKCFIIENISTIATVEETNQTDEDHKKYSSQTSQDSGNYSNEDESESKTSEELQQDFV

growth inhibitory effect of IFN-β on myeloma cells (Alamar Blue), with antisense-1 oligonucleotide against IR1B4: < 5 fold
Substance: IR1B4/PRMT protein of human U266S cells (from UniProt Q99873 11-371)
